Assay results: PMC10652096 (The Journal of Biological Chemistry, 2023)

Tests used:
human Hyper-IL-6 (HIL-6) [1] = target: human Hyper-IL-6 (HIL-6) (human); test: cell-based or functional assay
Hyper IL-12 (HIL-12) [2] = target: Hyper IL-12 (HIL-12) (human); test: cell-based or functional assay
human Hyper-IL-6 (HIL-6) [3] = target: T1, human Hyper-IL-6 (HIL-6) (human); test: SPR; Fc fusion captured on a Protein A sensor chip, cytokine injected (HIL-6, HIL-12 50 to 0.1 nM, 30 μl/min, 120 s association, 300 s dissociation); 25 °C, PBS pH 7.4, 0.05% surfactant P20; 1:1 binding model; Biacore X100; details: both partners purified
T1 construct: soluble IL-6 receptor (sIL-6R), human; flexible peptide linker; Interleukin 6 (IL-6), human; also called hHIL-6; source: recombinant, produced and purified as described (27)

Hyper IL-12 (HIL-12) [4] = target: T2, Hyper IL-12 (HIL-12) (human); test: as above; details: both partners purified
T2 construct: IL-12/IL-23 subunit p40, human; flexible linker; IL-12 subunit p35, human; also called hHIL-12; FLAG-tagged HIL-12

B1: cs130-IL-12/23^VHHFc (Fc fusion)
chain: ELLDPCGYISPESPVVQLHSNFTAVCVLKEKCMDYFHVNANYIVWKTNHFTIPKEQYTIINRTASSVTFTDIASLNIQLTCNILTFGQLEQNVYGITIISGLPPEKPKNLSCIVNEGKKMRCEWDGGRETHLETNFTLKSEWATHKFADCKAKRDTPTSCTVDYSTVYFVNIEVWVEAENALGKVTSDHINFDPVYKVKPNPPHNLSVINSEELSSILKLTWTNPSIKSVIILKYNIQYRTKDASTWSQIPPEDTASTRSSFTVQDLKPFTEYVFRIRCMKEDGKGYWSDWSEEASGITYEDDVQFVESGGGSVHAGGSLRLNCATSGYIYSTYCMGWFRQAPGKEREGVAHIYTNSGRTYYADSVKGRFTISQDNAKNTVYLQMNSLKPEDTAIYYCAARPSIRCASFSATEYKDWGQGTQVTVSSRENLYFQMKYLLPTAAAGLLLLAAQPAMAEVQLVESGGGLVQAGGSLRLSCAASGRTFSWSAVGWFRQAPGKEREFVAAIRWSGGSPYYADSVKDRFTISRDNAKNTVYLQMNSLRPEDTAVYLCGETSLFPTSRGSHYDTWGQGTQVTVSSGSGWSHPQFEK
IC50 of inhibition of proliferation of Ba/F3-gp130 cells stimulated with 150 ng/ml IL-6 and 300 ng/ml sIL-6R (IL-6 trans-signaling via gp130; separate IL-6 and sIL-6R, not the fused HIL-6) (human Hyper-IL-6 (HIL-6) [1]): 0.56 nM | IC50 of inhibition of proliferation of Ba/F3-hIL-12Rβ1-hIL-12Rβ2 cells induced by 10 ng/ml HIL-12, 72 h, CellTiter-Blue (Hyper IL-12 (HIL-12) [2]): 7.81 nM | Kd (human Hyper-IL-6 (HIL-6) [3]): 0.0289 nM | koff (human Hyper-IL-6 (HIL-6) [3]): 7.02e-05 s⁻¹ | kon (human Hyper-IL-6 (HIL-6) [3]): 2.43e+06 M⁻¹ s⁻¹ | Kd (Hyper IL-12 (HIL-12) [4]): 0.23 nM | koff (Hyper IL-12 (HIL-12) [4]): 0.000163 s⁻¹ | kon (Hyper IL-12 (HIL-12) [4]): 710000 M⁻¹ s⁻¹

B2: cs130-TNF^VHHFc (Fc fusion)
chain: ELLDPCGYISPESPVVQLHSNFTAVCVLKEKCMDYFHVNANYIVWKTNHFTIPKEQYTIINRTASSVTFTDIASLNIQLTCNILTFGQLEQNVYGITIISGLPPEKPKNLSCIVNEGKKMRCEWDGGRETHLETNFTLKSEWATHKFADCKAKRDTPTSCTVDYSTVYFVNIEVWVEAENALGKVTSDHINFDPVYKVKPNPPHNLSVINSEELSSILKLTWTNPSIKSVIILKYNIQYRTKDASTWSQIPPEDTASTRSSFTVQDLKPFTEYVFRIRCMKEDGKGYWSDWSEEASGITYEDDVQFVESGGGSVHAGGSLRLNCATSGYIYSTYCMGWFRQAPGKEREGVAHIYTNSGRTYYADSVKGRFTISQDNAKNTVYLQMNSLKPEDTAIYYCAARPSIRCASFSATEYKDWGQGTQVTVSSGGGGSGGGGSGGGGTG
IC50 of inhibition of proliferation of Ba/F3-gp130 cells stimulated with 150 ng/ml IL-6 and 300 ng/ml sIL-6R (IL-6 trans-signaling via gp130; separate IL-6 and sIL-6R, not the fused HIL-6) (human Hyper-IL-6 (HIL-6) [1]): 0.51 nM | Kd (human Hyper-IL-6 (HIL-6) [3]): 0.0488 nM | koff (human Hyper-IL-6 (HIL-6) [3]): 8.55e-05 s⁻¹ | kon (human Hyper-IL-6 (HIL-6) [3]): 1.75e+06 M⁻¹ s⁻¹
